Results as given in article PMC4130924 (Protein & Cell, 2014).

B2: Human ubiquitin C-terminal hydrolase Uch37, full-length (enzyme, UniProt Q9Y5K5 1-329, looked up)
chain: MTGNAGEWCLMESDPGVFTELIKGFGCRGAQVEEIWSLEPENFEKLKPVHGLIFLFKWQPGEEPAGSVVQDSRLDTIFFAKQVINNACATQAIVSVLLNCTHQDVHLGETLSEFKEFSQSFDAAMKGLALSNSDVIRQVHNSFARQQMFEFDTKTSAKEEDAFHFVSYVPVNGRLYELDGLREGPIDLGACNQDDWISAVRPVIEKRIQKYSEGEIRFNLMAIVSDRKMIYEQKIAELQRQLAEEEPMDTDQGNSMLSAIQSEVAKNQMLIEEEVQKLKRYKIENIRRKHNYLPFIMELLKTLAEHQQLIPLVEKAKEKQNAKKAQETK
B3: Full-length Uch37 containing only one cysteine (C27), labelled with Alexa Fluor 555 and Alexa Fluor 647 (enzyme, human, UniProt Q9Y5K5 1-329, looked up)
chain: MTGNAGEWALMESDPGVFTELIKGFGCRGAQVEEIWSLEPENFEKLKPVHGLIFLFKWQPGEEPAGSVVQDSRLDTIFFAKQVINNAAATQAIVSVLLNATHQDVHLGETLSEFKEFSQSFDAAMKGLALSNSDVIRQVHNSFARQQMFEFDTKTSAKEEDAFHFVSYVPVNGRLYELDGLREGPIDLGAANQDDWISAVRPVIEKRIQKYSEGEIRFNLMAIVSDRKMIYEQKIAELQRQLAEEEPMDTDQGNSMLSAIQSEVAKNQMLIEEEVQKLKRYKIENIRRKHNYLPFIMELLKTLAEHQQLIPLVEKAKEKQNAKKAQETK
modifications: Cys27 conjugated to Alexa Fluor 555 or Alexa Fluor 647 (randomly)

Legend:
[1] = biological target: B3; experiment: FRET or BRET; Uch37 (C27 only) randomly labelled with Alexa Fluor 555 and 647, 250 nmol/L, excited at 550 nm; then an excess molar amount of Rpn13C added, 30 min; details: both partners purified
[2] = biological target: B2; experiment: SPR; Biacore3000, 25°C, PBS; Rpn13C immobilised on CM5 by amine coupling, Uch37 15.6-500 nmol/L flowed over; 1:1 Langmuir model; details: both partners purified
[3] = biological target: the molecule itself; experiment: time-resolved SAXS; stopped-flow mixing of Uch37 and Rpn13C at a 1:1 monomer molar ratio, overall 3.7 mg/mL, 8 ms to 600 s; I0 and Rg against time
[4] = biological target: the molecule itself; experiment: FRET or BRET; Uch37 (C27 only) randomly labelled with Alexa Fluor 555 and 647, 250 nmol/L, excited at 550 nm; then an excess molar amount of Rpn13C added, 30 min

B1: Rpn13C (Rpn13 residues 270-407) (domain or fragment, UniProt Q16186 270-407, looked up)
chain: ILATMNVPAGPAGGQQVDLASVLTPEIMAPILANADVQERLLPYLPSGESLPQTADEIQNTLTSPQFQQALGMFSAALASGQLGPLMCQFGLPAEAVEAANKGDVEAFAKAMQNNAKPEQKEGDTKDKKDEEEDMSLD
Q: Does B1 bind [1]?
A: binds

Q: And the Kd [2]?
A: 5.35 nM

Q: Does B2 bind [3]?
A: binds

Q: Does B3 bind [4]?
A: binds
